According to patent publication US9688764B2, “Methods of treating breast cancer by administering anti-human prolactin receptor (PRLR) antibodies” (REGENERON PHARMACEUTICALS, INC., priority 2013, dated 2017):
Positions count from the first letter of the chain named.

T1: T47D (native PRLR expressing cell line) (Homo sapiens, UniProt P16471)
T1 construct: a native PRLR expressing cell line (T47D); endogenous in cells; host or cells: T47D
T1 sequence (P16471 25-622): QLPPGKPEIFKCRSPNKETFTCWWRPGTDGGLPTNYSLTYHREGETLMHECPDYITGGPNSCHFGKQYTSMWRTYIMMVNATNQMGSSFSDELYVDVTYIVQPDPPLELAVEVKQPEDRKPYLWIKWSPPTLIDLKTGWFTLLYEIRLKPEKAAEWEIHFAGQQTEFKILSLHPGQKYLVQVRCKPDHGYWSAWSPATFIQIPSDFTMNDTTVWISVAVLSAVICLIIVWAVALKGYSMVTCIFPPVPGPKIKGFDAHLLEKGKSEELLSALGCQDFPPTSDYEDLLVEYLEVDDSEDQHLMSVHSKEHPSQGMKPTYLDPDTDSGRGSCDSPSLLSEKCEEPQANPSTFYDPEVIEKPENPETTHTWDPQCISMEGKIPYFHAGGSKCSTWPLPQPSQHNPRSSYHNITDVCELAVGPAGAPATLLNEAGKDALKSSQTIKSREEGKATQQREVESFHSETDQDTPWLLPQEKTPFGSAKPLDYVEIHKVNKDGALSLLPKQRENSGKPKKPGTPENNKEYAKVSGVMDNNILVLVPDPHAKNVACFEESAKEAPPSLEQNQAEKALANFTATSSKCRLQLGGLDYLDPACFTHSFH

T2: HEK293/mPRLR (Mus musculus, UniProt Q08501)
T2 construct: HA; expressed in transfected cells; host or cells: HEK293
T2 sequence (Q08501 20-608): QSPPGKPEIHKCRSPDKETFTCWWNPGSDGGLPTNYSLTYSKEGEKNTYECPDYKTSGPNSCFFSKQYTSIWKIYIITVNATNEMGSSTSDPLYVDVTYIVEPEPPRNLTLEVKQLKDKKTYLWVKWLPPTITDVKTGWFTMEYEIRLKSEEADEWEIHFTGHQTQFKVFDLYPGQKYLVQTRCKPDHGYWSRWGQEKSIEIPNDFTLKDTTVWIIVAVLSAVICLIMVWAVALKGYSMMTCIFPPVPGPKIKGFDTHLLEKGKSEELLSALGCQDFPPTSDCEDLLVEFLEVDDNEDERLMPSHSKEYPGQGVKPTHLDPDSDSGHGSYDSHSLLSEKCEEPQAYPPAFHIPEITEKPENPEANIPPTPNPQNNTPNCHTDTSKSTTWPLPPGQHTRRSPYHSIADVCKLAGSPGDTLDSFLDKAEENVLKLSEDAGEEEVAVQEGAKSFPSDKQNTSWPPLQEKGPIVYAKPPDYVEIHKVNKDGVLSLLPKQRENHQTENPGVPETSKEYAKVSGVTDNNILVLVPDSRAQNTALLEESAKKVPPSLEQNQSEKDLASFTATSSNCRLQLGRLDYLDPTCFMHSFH

T3: HEK293/hPRLR (Homo sapiens, UniProt P16471)
T3 construct: HA; expressed in transfected cells; host or cells: HEK293
T3 sequence (P16471 25-622): T1 sequence (P16471 25-622)

B1: H1H6975N: human IgG1 Fc form of H2M6975N; anti-PRLR; HCVR/LCVR SEQ ID NOs 370/378 (antibody, V domains shown)
VH: EVHLVESGGGLVQPGGSLRLSCAASGFTFSSYEMNWVRQTPGKGLEWISHISSRSVIIYYADSVKGRFTISRDNAKNSLFLQMNSLRAEDTAVYFCAGITIFGIPEYWGQGTLVTVSS
VL: EIVLTQSPATLSLSPGERATLSCRASQSVSSYFAWYQQKPGQAPRLLIYDASSRATGIPTRFSGSGSGTDFTLTISSLEPEDFAVYYCQQRSSWPITFGQGTRLEIK
modifications: human IgG1 Fc
B2: H1H6959N2: human IgG1 Fc form of H2M6959N2; anti-PRLR; HCVR/LCVR SEQ ID NOs 306/314 (antibody, V domains shown)
VH: EVQLVESGGGLVQPGRSLRLSCAASGFTFDDYAMHWVRQAPGKGLEWVSGISWHSGIIGYADSVKGRFTISRDNAKNSLYLQMNSLRTEDAALYYCAKIGSYFYFDSWGQGTLVTVSS
VL: EIVLTQSPGTLSLSPGERATLSCRASQSVSSNYLAWYQQKPGQAPRLLIYGASSRATGIPDRFSGSGSGTDFTLTISRLEPEDFAVYYCQQFGSSGYTFGQGTNLEIK
modifications: human IgG1 Fc
B3: H1H6976N: human IgG1 Fc form of H2M6976N; anti-PRLR; HCVR/LCVR SEQ ID NOs 386/394 (antibody, V domains shown)
VH: EVQLLESGGGFVQPGGSLRLSCAASGFTFSSYAMSWVRQAPGKGLEWVSIISSNGRYTYYADSVKGRFTISRDNSKNTLYLQMNSLRAEDTAVYYCATVTGDWFDPWGQGTLVTVSS
VL: DIQLTQSPSFLSASVGDRVTITCWASQDIDISLAWYQQKPGKAPKLLIYAASTLQSGVPSKFSGSGSGTDFTLTISSLQPEDFSTYYCQQLNSYPITFGQGTRLDIK
modifications: human IgG1 Fc
B4: H1H6960N: human IgG1 Fc form of H2M6960N; anti-PRLR; HCVR/LCVR SEQ ID NOs 322/330 (antibody, V domains shown)
VH: EVQLVESGGGLVKPGGSLRLSCAASGITFSSYSMNWVRQAPGKGLEWVSSISTRSSLIHYADSVKGRFTISRDNAKNSLYLQMNSLRDEDTAVYYCARWDAAAAFDYWGQGTLVIVSS
VL: DIQLTQSPSFLSASVGDRVTITCWASQGISSYLAWYQQKPGKAPKLLIYVASTLQSGVPSRFSGSGSGTEFTLTISSLQPEDFATYFCQQLNSYPLTFGGGTKVEIK
modifications: human IgG1 Fc
B5: H1H6958N2: human IgG1 Fc form of H2M6958N2; anti-PRLR, receptor blocking; HCVR/LCVR SEQ ID NOs 290/298 (antibody, V domains shown)
VH: QVQLVESGGGVVQPGRSLRLSCGASGFTFRNYGMQWVRQGPGKGLEWVTLISFDGNDKYYADSVKGRFTISRDNSKNTLFLQMNSLRTEDTAVYYCARGGDFDYWGQGTLVTVSS
VL: DIQMTQSPSSLSASVGDRVTITCRASQDIRKDLGWYQQKPGKAPKRLIYAASSLHSGVPSRFSGSGSGTEFTLTISSLQPEDFATYYCLQHNSYPMYTFGQGTKLEIK
modifications: human IgG1 Fc
B6: H1H6966N: human IgG1 Fc form of H2M6966N; anti-PRLR; HCVR/LCVR SEQ ID NOs 338/346 (antibody, V domains shown)
VH: QVQLVQSGAEVQKPGASVKVSCKVSGYTLTALSIHWVRQAPGKGLEWMGNFDPGDGETIHAQKFQGRVTMTGDTSTDTAYMELSSLRSEDTAVYYCVGVTFDYWGQGTLVTVSS
VL: EIVMTQSPATLSVSPGERATLSCRASQSVASNLAWYQQKPGQAPRLLLYGASTRATGIPARFSGSGSGTEFTLTISSLQSEDFALYYCQHYNNWPLTFGGGTKVEIK
modifications: human IgG1 Fc
B7: H1H6967N: human IgG1 Fc form of H2M6967N; anti-PRLR; HCVR/LCVR SEQ ID NOs 354/362 (antibody, V domains shown)
VH: EVQLVESGGDLVHPGRSLRLSCAASGFPFDEYAMHWVRQVPGKGLEWVSGISWSNNNIGYADSVKGRFTISRDNAKNSLYLQMNSLRPEDTAFYYCAKSGIFDSWGQGTLVTVSS
VL: B6 VL with A30S, S31R, N32D, L48I, Y49H, T69A, T74I, L85V, H90Q
modifications: human IgG1 Fc

Each molecule was assayed against T1, T47D (native PRLR expressing cell line) (assay: FACS cell surface binding).
Experimental: (§1) The ability of anti-PRLR antibodies to selectively bind PRLR expressing cell lines was next determined. Human, monkey macaca fascicularis, and mouse PRLR constructs with an HA tag were stably introduced into HEK293 cells via Lipofectamine 2000-mediated transfection methodology. Transfectants (HEK293/hPRLR, HEK293/mfPRLR and HEK293/mPRLR) were selected for at least 2 weeks in complete growth media plus G418.
(§2) Cell surface expression of PRLR on 293/hPRLR cells was assessed via FACS analysis. Briefly, 1×10^5 cells were incubated with 10 μg/ml of Control antibody I, or an isotype control for 30 min on ice in antibody dilution buffer. Following two washes with antibody dilution buffer, cells were incubated with 10 μg/ml of PE conjugated anti-human secondary antibodies for 30 min on ice. Following two additional washes, samples were run on a Hypercyt® cytometer and analyzed in FORECYT™ (IntelliCyt, Albuquerque, N. Mex.). The mean fluorescence intensities (MFI) were expressed as fold change above isotype control levels (background). FACS binding confirmed that Control I selectively bound to 293/hPRLR expressing cells with MFIs that were 30 fold above background (isotype ctrl) levels and less than 2 fold binding on parental cells.
(§3) Next, the anti-PRLR antibodies of the present invention were tested via FACS for selective binding to the engineered overexpressing PRLR HEK293 cell lines, as well as to non-expressing HEK293 cells and a native PRLR expressing cell line (T47D).

Row | Molecule | FACS Cell Binding (Fold Above Background)
1 | B1 | 46 Fold Above Background
2 | B2 | 9 Fold Above Background
3 | B3 | 37 Fold Above Background
4 | B4 | 33 Fold Above Background
5 | B5 | 37 Fold Above Background
6 | B6 | 31 Fold Above Background
7 | B7 | 41 Fold Above Background

Each molecule was assayed on HEK293 (non-expressing parental cells) (assay: FACS cell surface binding).
Experimental: as §1, §2, §3

Row | Molecule | FACS Cell Binding (Fold Above Background)
8 | B1 | 1 Fold Above Background
9 | B2 | 1 Fold Above Background
10 | B3 | 1 Fold Above Background
11 | B4 | 1 Fold Above Background
12 | B5 | 1 Fold Above Background
13 | B6 | 1 Fold Above Background
14 | B7 | 1 Fold Above Background

The molecules below were run against T2, HEK293/mPRLR (assay: FACS cell surface binding).
Experimental: as §1, §2, §3

Row | Molecule | FACS Cell Binding (Fold Above Background)
15 | B1 | 1 Fold Above Background
16 | B2 | 2 Fold Above Background
17 | B3 | 1 Fold Above Background
18 | B4 | 1 Fold Above Background
19 | B5 | 1 Fold Above Background
20 | B6 | 1 Fold Above Background
21 | B7 | 2 Fold Above Background

The molecules below were run against T3, HEK293/hPRLR (assay: FACS cell surface binding).
Experimental: as §1, §2, §3

Row | Molecule | FACS Cell Binding (Fold Above Background)
22 | B1 | 38 Fold Above Background
23 | B2 | 6 Fold Above Background
24 | B3 | 8 Fold Above Background
25 | B4 | 29 Fold Above Background
26 | B5 | 35 Fold Above Background
27 | B6 | 29 Fold Above Background
28 | B7 | 38 Fold Above Background

Each molecule was assayed on HEK293/mfPRLR (assay: FACS cell surface binding).
Parameters: species or system macaca fascicularis
Experimental: as §1, §2, §3

Sequence of HEK293/mfPRLR (as listed by the source): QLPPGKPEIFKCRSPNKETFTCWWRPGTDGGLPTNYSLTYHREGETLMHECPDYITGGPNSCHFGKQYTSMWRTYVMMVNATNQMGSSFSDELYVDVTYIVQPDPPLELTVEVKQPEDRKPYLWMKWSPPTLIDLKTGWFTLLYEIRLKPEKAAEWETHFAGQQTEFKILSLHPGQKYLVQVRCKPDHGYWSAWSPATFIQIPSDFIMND

Row | Molecule | FACS Cell Binding (Fold Above Background)
29 | B1 | 29 Fold Above Background
30 | B2 | 11 Fold Above Background
31 | B3 | 29 Fold Above Background
32 | B4 | 23 Fold Above Background
33 | B5 | 30 Fold Above Background
34 | B6 | 18 Fold Above Background
35 | B7 | 28 Fold Above Background
